Measurements published in patent publication US20220332804A1 (CSL INNOVATION, published 2022).
Substitutions are numbered along the chain they refer to.

Assays:
Assay in all cases: SPR, antibody captured, C2 as analyte;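 also: biacore SPR at 37 °C, anti-C2 mAbs captured via goat anti-human IgG on CM5 chips, double-referenced sensorgrams fit to a 1:1 kinetic or steady-state model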
human C2 K430A = molecular target: T1, human C2 K430A (human, UniProt P06681 21-752)
T1 sequence: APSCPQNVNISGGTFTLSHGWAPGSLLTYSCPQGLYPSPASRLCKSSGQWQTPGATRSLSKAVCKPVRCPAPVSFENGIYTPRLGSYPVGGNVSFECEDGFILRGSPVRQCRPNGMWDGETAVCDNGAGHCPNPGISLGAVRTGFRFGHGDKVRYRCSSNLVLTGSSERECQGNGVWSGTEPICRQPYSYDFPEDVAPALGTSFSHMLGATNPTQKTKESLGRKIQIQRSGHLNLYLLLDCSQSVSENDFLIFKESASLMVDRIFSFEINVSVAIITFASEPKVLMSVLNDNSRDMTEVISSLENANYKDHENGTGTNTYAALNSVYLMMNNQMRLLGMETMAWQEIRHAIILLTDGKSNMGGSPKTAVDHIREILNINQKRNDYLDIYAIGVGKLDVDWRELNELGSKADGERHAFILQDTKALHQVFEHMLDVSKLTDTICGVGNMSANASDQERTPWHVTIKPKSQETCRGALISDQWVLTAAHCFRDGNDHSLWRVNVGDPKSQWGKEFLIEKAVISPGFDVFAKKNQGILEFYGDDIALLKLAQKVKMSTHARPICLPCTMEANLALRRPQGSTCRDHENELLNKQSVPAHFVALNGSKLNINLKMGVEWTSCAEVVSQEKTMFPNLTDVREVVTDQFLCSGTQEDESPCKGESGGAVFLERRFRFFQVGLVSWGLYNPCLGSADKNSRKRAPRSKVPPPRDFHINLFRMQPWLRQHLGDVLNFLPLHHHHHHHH

human C2 A709S = molecular target: T2, human C2 A709S (human, UniProt P06681 21-752)
T2 sequence: T1 sequence with A410K, A689S

human C2 D710A = molecular target: T3, human C2 D710A (human, UniProt P06681 21-752)
T3 sequence: T1 sequence with A410K, D690A

human C2 K485A = molecular target: T4, human C2 K485A (human, UniProt P06681 21-752)
T4 sequence: T1 sequence with A410K, K465A

B1: RF16-226 (antibody, human IgG4 S228P, lambda)
heavy: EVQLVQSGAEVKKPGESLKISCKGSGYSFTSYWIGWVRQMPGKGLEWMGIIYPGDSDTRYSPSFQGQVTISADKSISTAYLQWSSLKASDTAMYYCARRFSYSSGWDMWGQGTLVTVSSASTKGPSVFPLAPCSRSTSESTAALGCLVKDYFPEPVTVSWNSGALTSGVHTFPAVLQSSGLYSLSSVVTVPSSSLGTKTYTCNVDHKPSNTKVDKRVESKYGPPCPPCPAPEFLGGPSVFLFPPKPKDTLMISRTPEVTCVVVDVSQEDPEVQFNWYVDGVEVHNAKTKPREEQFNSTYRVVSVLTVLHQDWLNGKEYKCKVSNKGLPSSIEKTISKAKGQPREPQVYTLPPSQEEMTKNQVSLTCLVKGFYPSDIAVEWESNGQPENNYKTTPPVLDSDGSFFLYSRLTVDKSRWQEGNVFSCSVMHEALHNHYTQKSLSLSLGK
light: SYELTQPPSVSVSPGQTARITCSGDALTSKYVAWYQQKSGLAPLLVIYEDTRRPSGIPAKFSGSSSGSVATLTISGAHGDDEADYYCYSTDASGHQRVFGGGTKLTVLSQPKAAPSVTLFPPSSEELQANKATLVCLISDFYPGAVTVAWKADGSPVKAGVETTKPSKQSNNKYAASSYLSLTPEQWKSHRSYSCQVTHEGSTVEKTVAPTECS
notes: pH-dependent anti-C2 antibody from a phage display library; also called WT
Kd (human C2 K430A): 62 nM | Kd (human C2 A709S): 127 nM | Kd (human C2 D710A): 97.4 nM | Kd (human C2 K485A): 12.5 nM
